Consider 7 sequences from the supplement of paper PMC11316812.

The subject of data set [1] is MCF7. The experiment in a line: percentage of EdU-negative (G0-arrested) nuclei per well, 72 h; higher = more G0 arrest. To be noted: reference: sequence is the full UniProt precursor, the tested protein was the secreted form or ectodomain.
The test system of data set [2] is hTERT-HMEC. The data set is described as above. Particulars: reference: sequence is the full UniProt precursor, the tested protein was the secreted form or ectodomain.
The mark [3] stands for this setting: protein concentration 0.0225 µM.
Where [4] appears, read: protein concentration 0.01025 µM.
Setting [5] is: protein concentration 0.1025 µM.
[6] abbreviates: protein concentration 0.03125 µM.
The mark [7] stands for this setting: protein concentration 0.3125 µM.
Where [8] appears, read: protein concentration 0.01425 µM.
[9] abbreviates: protein concentration 0.1425 µM.

± gives the standard deviation of the averaged measurements.
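Further: secreted proteins added to cultured cells, EdU pulse at the end, nuclei found by Hoechst imaging, EdU status from nuclear versus surrounding ring intensity ratio, PBS as neutral control.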

Take “MLALLVLVTVALASAHHGGEHFEGEKVFRVNVEDENHINIIRELASTTQIDFWKPDSVTQIKPHSTVDFRVKAEDTVTVENVLKQNELQYKVLISNLRNVVEAQFDSRVRATGHSYEKYNKWETIEAWTQQVATENPALISRSVIGTTFEGRAIYLLKVGKAGQNKPAIFMDCGFHAREWISPAFCQWFVREAVRTYGREIQVTELLDKLDFYVLPVLNIDGYIYTWTKSRFWRKTRSTHTGSSCIGTDPNRNFDAGWCEIGASRNPCDETYCGPAAESEKETKALADFIRNKLSSIKAYLTIHSYSQMMIYPYSYAYKLGENNAELNALAKATVKELASLHGTKYTYGPGATTIYPAAGGSDDWAYDQGIRYSFTFELRDTGRYGFLLPESQIRATCEETFLAIKYVASYVLEHLY”: the “percentage of EdU-negative” value in data set [1] (setting [3]) amounted to 24.5 ± 1.1%; in data set [1] (protein concentration 0.225 µM), 25.4 ± 0.42%; in data set [2] (setting [3]), 5.24 ± 0.55%; in data set [2] (protein concentration 0.225 µM), 5.32 ± 0.42%.
With “MAGGRETCLPLIGFILICLKMVASAKSAPEIPTIDQAYSKLSNSITVEWATVPGATSYLLTAEDGDTVIETTVANSPGTVTGLKAATWYEITIRSISAAGRSQASPPKQAKTVLAAPILEVSSPSSDSILVQWEAVYMAIAFSVSIMRANGLGSIWKENTTNTSLTFTSLEAGTLYTIKAYAWNANRIPGDDSTCNQRTSPRAPANIQVSFDSGALKASFSWARAEGAFNYTVMALSDSSELTCSTTFSSCTISSLQCGTEYLISVLASNDAGSSKSSSAMTLKTVACAPGRVTIQEDPPGHLSVAWSSVDLGDYYVVFVKSDDGLEVHCNTSLTQCNFLSECGFTYFISVFVYNKAGQSPLGDIFNYTTAPCCPSDINPVLVSSDRVEIVWSPVRGAELYETKAVDGYNMVECNDTTPACTLSALECDTKYNITVYSFNEVRGSNMSCTPQFITTAPCSPEIKNVSRDAFSMINVHWRSTNDDATYTVTAQGEKGLYQCSSTGESCTMRGLPCGSVFSVTAVAETQAGRSLPSYSVPLETVPCCPTGLTVTQITQSVINVSWTIGRVAQTHVAVLESHTGQSKCHTHQNHCLLGCITCGINYTVTLKAISATGLTADCSYQSYFSGACCPLGVKLYRLGPNGIRIYWQASRGSANYSTDLYGSKGIFTCTPSAGLSFCDVTEIPCGDVYTVMVSPVAKTGLKLTFCPKKIYSVTCSGSTLGMVIYRGKRNEE [Q5VTL7]”, the “percentage of EdU-negative” value in data set [1] (setting [4]) came out at 25.3 ± 0.94%; in data set [1] (setting [5]), 35.5 ± 1%; in data set [2] (setting [4]), 4.97 ± 0.23%; in data set [2] (setting [5]) it was 35.6 ± 3.5%.
On to “MLGPCMLLLLLLLGLRLQLSLGIIPVEEENPDFWNREAAEALGAAKKLQPAQTAAKNLIIFLGDGMGVSTVTAARILKGQKKDKLGPEIPLAMDRFPYVALSKTYNVDKHVPDSGATATAYLCGVKGNFQTIGLSAAARFNQCNTTRGNEVISVMNRAKKAGKSVGVVTTTRVQHASPAGTYAHTVNRNWYSDADVPASARQEGCQDIATQLISNMDIDVILGGGRKYMFRMGTPDPEYPDDYSQGGTRLDGKNLVQEWLAKRQGARYVWNRTELMQASLDPSVTHLMGLFEPGDMKYEIHRDSTLDPSLMEMTEAALRLLSRNPRGFFLFVEGGRIDHGHHESRAYRALTETIMFDDAIERAGQLTSEEDTLSLVTADHSHVFSFGGYPLRGSSIFGLAPGKARDRKAYTVLLYGNGPGYVLKDGARPDVTESESGSPEYRQQSAVPLDEETHAGEDVAVFARGPQAHLVHGVQEQTFIAHVMAFAACLEPYTACDLAPPAGTTDAAHPGRSVVPALLPLLAGTLLLLETATAP”, for which the “percentage of EdU-negative” value in data set [1] (setting [3]) stood at 27.28 ± 0.045%; in data set [1] (protein concentration 0.225 µM) it was 29.68 ± 0.2%; in data set [2] (setting [3]), 5.09 ± 0.15%; in data set [2] (protein concentration 0.225 µM), 5.14 ± 0.97%.
The like results for “MKGICSDAILVLATSMWMAFAIDFPLPMASERGQLDKTIVECLKNVNKCWFLSYIKPSEPICGSDQVTYSSDCHLCSKILFEGLNITKLYDGQCENS [P0C7L1]” were, in that order, 23.2 ± 2.9%, 26.1 ± 0.36%, 5.76 ± 1.6% and 7.03 ± 0.23%.
Consider “MRAPGMRSRPAGPALLLLLLFLGAAESVRRAQPPRRYTPDWPSLDSRPLPAWFDEAKFGVFIHWGVFSVPAWGSEWFWWHWQGEGRPQYQRFMRDNYPPGFSYADFGPQFTARFFHPEEWADLFQAAGAKYVVLTTKHHEGFTNWPSPVSWNWNSKDVGPHRDLVGELGTALRKRNIRYGLYHSLLEWFHPLYLLDKKNGFKTQHFVSAKTMPELYDLVNSYKPDLIWSDGEWECPDTYWNSTNFLSWLYNDSPVKDEVVVNDRWGQNCSCHHGGYYNCEDKFKPQSLPDHKWEMCTSIDKFSWGYRRDMALSDVTEESEIISELVQTVSLGGNYLLNIGPTKDGLIVPIFQERLLAVGKWLSINGEAIYASKPWRVQWEKNTTSVWYTSKGSAVYAIFLHWPENGVLNLESPITTSTTKITMLGIQGDLKWSTDPDKGLFISLPQLPPSAVPAEFAWTIKLTGVK”, for which the “percentage of EdU-negative” value in data set [1] (setting [6]) is 23.7 ± 2%; in data set [1] (setting [7]), 27.8 ± 1.4%; in data set [2] (setting [6]), 5.35 ± 1.3%; in data set [2] (setting [7]), 6.003 ± 0.042%.
In the case of “MRWCLLLIWAQGLRQAPLASGMMTGTIETTGNISAEKGGSIILQCHLSSTTAQVTQVNWEQQDQLLAICNADLGWHISPSFKDRVAPGPGLGLTLQSLTVNDTGEYFCIYHTYPDGTYTGRIFLEVLESSVAEHGARFQIPLLGAMAATLVVICTAVIVVVALTRKKKALRIHSVEGDLRRKSAGQEEWSPSAPSPPGSCVQAEAAPAGLCGEQRGEDCAELHDYFNVLSYRSLGNCSFFTETG [Q495A1]”, the “percentage of EdU-negative” value came out at 23.6 ± 1.6% in data set [1] (setting [3]), 24.1 ± 1.1% in data set [1] (protein concentration 0.225 µM), 4.33 ± 0.49% in data set [2] (setting [3]) and 5.59 ± 0.47% in data set [2] (protein concentration 0.225 µM).
With “MKITSTSCICPVLVCLCFVQRCYGTAHHSSIKVMRNQTKHIEGETEVHHRPKRGWVWNQFFVLEEHMGPDPQYVGKLHSNSDKGDGSVKYILTGEGAGTIFIIDDTTGDIHSTKSLDREQKTHYVLHAQAIDRRTNKPLEPESEFIIKVQDINDNAPKFTDGPYIVTVPEMSDMGTSVLQVTATDADDPTYGNSARVVYSILQGQPYFSVDPKTGVIRTALHNMDREAREHYSVVIQAKDMAGQVGGLSGSTTVNITLTDVNDNPPRFPQKHYQLYVPESAQVGSAVGKIKANDADTGSNADMTYSIINGDGMGIFSISTDKETREGILSLKKPLNYEKKKSYTLNIEGANTHLDFRFSHLGPFKDATMLKIIVGDVDEPPLFSMPSYLMEVYENAKIGTVVGTVLAQDPDSTNSLVRYFINYNVEDDRFFNIDANTGTIRTTKVLDREETPWYNITVTASEIDNPDLLSHVTVGIRVLDVNDNPPELAREYDIIVCENSKPGQVIHTISATDKDDFANGPRFNFFLDERLPVNPNFTLKDNEDNTASILTRRRRFSRTVQDVYYLPIMISDGGIPSLSSSSTLTIRVCACERDGRVRTCHAEAFLSSAGLSTGALIAILLCVLILLAIVVLFITLRRSKKEPLIISEEDVRENVVTYDDEGGGEEDTEAFDITALRNPSAAEELKYRRDIRPEVKLTPRHQTSSTLESIDVQEFIKQRLAEADLDPSVPPYDSLQTYAYEGQRSEAGSISSLDSATTQSDQDYHYLGDWGPEFKKLAELYGEIESERTT”, the “percentage of EdU-negative” value stood at 26 ± 2.9% in data set [1] (setting [8]), 37 ± 4.3% in data set [1] (setting [9]), 5.06 ± 0.45% in data set [2] (setting [8]) and 7.93 ± 0.73% in data set [2] (setting [9]).
